Reference: patent US20090036365A1

Target: human plasmin (human) (UniProt P00747)
Experiment: display phage binding to immobilised protease; this row is the reference taken as unit

Chain of human plasmin (human) (P00747 97-810 limits assumed): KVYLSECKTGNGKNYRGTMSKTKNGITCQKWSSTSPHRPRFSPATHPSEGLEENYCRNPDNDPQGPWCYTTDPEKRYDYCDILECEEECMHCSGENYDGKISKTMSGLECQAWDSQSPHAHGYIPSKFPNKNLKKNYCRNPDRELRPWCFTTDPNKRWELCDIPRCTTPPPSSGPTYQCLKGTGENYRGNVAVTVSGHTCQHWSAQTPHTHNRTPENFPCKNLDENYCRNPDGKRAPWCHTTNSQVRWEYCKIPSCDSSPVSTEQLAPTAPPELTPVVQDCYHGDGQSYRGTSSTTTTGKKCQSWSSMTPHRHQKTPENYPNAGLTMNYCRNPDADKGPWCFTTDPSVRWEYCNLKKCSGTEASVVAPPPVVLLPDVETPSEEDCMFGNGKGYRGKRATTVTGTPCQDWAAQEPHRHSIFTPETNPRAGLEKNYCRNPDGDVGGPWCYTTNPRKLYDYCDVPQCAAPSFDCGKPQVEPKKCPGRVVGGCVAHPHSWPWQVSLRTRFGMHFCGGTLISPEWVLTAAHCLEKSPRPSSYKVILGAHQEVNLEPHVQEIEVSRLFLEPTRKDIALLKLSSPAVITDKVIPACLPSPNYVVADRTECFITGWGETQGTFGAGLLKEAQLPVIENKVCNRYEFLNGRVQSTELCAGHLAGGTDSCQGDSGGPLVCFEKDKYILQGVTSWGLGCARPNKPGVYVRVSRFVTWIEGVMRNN

Substance: LACI-K1 (first Kunitz domain of human lipoprotein-associated coagulation inhibitor) (from UniProt P10646 50-107)
- relative binding (LACI-K1 phage = unit) (fold of LACI-K1 phage): 1
